Data on 4 molecules can be found in patent US20220041746A1 (Sanofi, published 2022).

Experiment [1] has as its target T1, human CD3 (Cambridge Biologics LLC Cat #03-01-0051) (human, UniProt P07766 23-126; P09693 23-116).
T1 construct: the reagent may hold further CD3 chains
Kind of experiment: ELISA on coated hCD3 γε IgG4; the arrow ends on the second curve from the right, which carries the small markers. Here is the method: (§1) The binding properties of the purified antibodies were analyzed either using ELISA or SPR methods. For ELISA, corresponding antigens for each binding site in the trispecific binding protein were used to coat a 96-well Immuno Plate (Nunc 439454, Thermo Fisher Scientific) overnight at 4° C. using 2 μg/ml each antigen m PBS(pH7.4). The coated plate was blocked using 5% skim milk 12% BSA in PBS for one hour at RT, followed by washing with PBS+[…] three times (Aqua Max 400, Molecular Devices). Serial dilution of antibodies (trispecific and control Abs) were prepared and added onto the ELISA plates (100 μl/well in duplicate), incubated at RT for one hour, followed by washing 5 times with PBS+0.25% Tween 20.
(§2) The reaction was terminated by adding 50 μl 1M H₂SO₄, and OD₄₅₀ was measured using SpectraMax M5 (Molecular Devices) and analyzed using SoltMax Pro6.3 software (Molecular Devices). The final data was transferred to GraphPad Prism software (GraphPad Software, CA. USA), and plotted as shown. EC50 was calculated using the same software.
On the technique in general: In an ELISA, binding on a coated surface is turned into a signal by an enzyme label.

Experiment [2] concerns the target T2, recombinant human CD38 (SPR of Example 4) (human, UniProt P28907 45-300, limits assumed). Briefly: SPR (column 'KD value against rec. protein by SPR (nM)'); second value of the pair, taken for CD3low.
Experiment [3] addresses human CD28 (SPR of Example 4) (human, UniProt P10747 19-152, limits assumed). Briefly: SPR; KD rounded to an integer; second value of the pair, taken for CD3low. Here is the method: (§3) Surface regenerate was conducted by injecting 10 mM Glycine-HCl pH 2.5 for 60 sec at 30 μl/min. […] Equilibrium dissociation constant (KD) was calculated using association rate constant (kₒₙ) and dissociation rate constant (koff).

Experiment [4] concerns the target T2, recombinant human CD38 (SPR of Example …). The description is as above. Here is the method:
as §3

Experiment [5] concerns the target T3, human CD38 expressed on the cell surface (human, UniProt P28907 1-300).
T3 construct: whole, on cells; also called hCD38-expressing cells; huCD38
Kind of experiment: flow cytometry (FACS) on 300.19 PreB hCD38 cells. As for the experimental part: (§4) The recombinant cell line was described by J. Deckket et al. 2014 Clin Cancer Res 20:4574-4583. […] Antibody binding was evaluated after centrifugation and resuspension of cells by adding 200 μL/well PBS 1% BSA and read using Guava® easvCyte™ 8HT Flow Cytometry System. Apparent KD and EC50 values were estimated using BIOST@T-BINDING and BIOST@T-SPEED software, respectively.
Background: A flow cytometer gives signals particle by particle.

Experiment [6] concerns the target T3, human CD38 expressed on the cell surface. Kind of experiment: flow cytometry (column FACS EC50 nM, hu). Here is the method: as §4
Experiment [7] concerns the target T4, hCD38-his (SEQ ID NO: 2) (human, UniProt P28907 45-300).
T4 construct: His-tagged soluble protein derived from isoform A; also called human CD38-histag; hCD38::Histag
Kind of experiment: ELISA (column ELISA EC50 nM, hu).

The target in experiment [8] is T5, cCD38-his (SEQ ID NO: 4) (cynomolgus monkey, UniProt Q5VAN0 46-301).
T5 construct: His-tagged soluble protein; also called cyno CD38-histag; cynoCD38::Histag
Briefly: ELISA on cynoCD38::Histag [Cont.].

Experiment [9] concerns the target T4, hCD38-his (SEQ ID NO: 2). Briefly: SPR, mAb captured via anti-human Fc, soluble CD38-his injected. As for the experimental part:
(§5) The binding properties of the anti-huCD38 mabs were evaluated using a BIAcore 2000 (BIAcore Inc., Uppsala, Ni). […] The surface was regenerated between injections using 30 μL of 50 mM NaOH-1 M NaCl. Individual sensorgrams wore analyzed using BIAsimulation software.
(In general: Surface plasmon resonance follows binding to a sensor surface in real time, without labels.)

The target of experiment [10] is T5, cCD38-his (SEQ ID NO: 4). The description is as above. Here is the method: as §5
Experiment [11] has as its target T6, cynomolgus monkey CD38 expressed on the cell surface (cynomolgus monkey, UniProt Q5VAN0 1-301).
T6 construct: whole, on cells; also called cCD38-expressing cells
Kind of experiment: flow cytometry (FACS) on 300.19 PreB cynoCD38 cells [Cont.]. As for the experimental part: as §4

Experiment [12] deals with T6, cynomolgus monkey CD38 expressed on the …. Kind of experiment: flow cytometry on preB::300.19 cells, apparent KD. As for the experimental part: as §4
For experiment [13], the target named is T3, human CD38 expressed on the cell surface. Kind of experiment: flow cytometry on preB::300.19 cells, apparent KD. Here is the method:
as §4

Experiment [14] concerns the target T5, cCD38-his (SEQ ID NO: 4). Briefly: ELISA (column ELISA EC50 nM, cyno).
Experiment [15] deals with T4, hCD38-his (SEQ ID NO: 2). Briefly: ELISA on hCD38::Histag.
Experiment [16] deals with T6, cynomolgus monkey CD38 expressed on the …. Kind of experiment: flow cytometry (column FACS EC50 nM, cyno). Here is the method: as §4
Experiment [17] deals with T1, human CD3 (Cambridge Biologics LLC Cat …). Briefly: ELISA on coated hCD3 γε IgG4; the arrow ends on the rightmost curve, which carries the triangles. Here is the method: as §1, §2
Experiment [18] deals with human CD38 (Cambridge Biologics LLC Cat #03-01-0369) (human, UniProt P28907 43-300). Briefly: ELISA on coated hCD38-His. As for the experimental part: as §1, §2
Experiment [19] concerns the target T5, cCD38-his (SEQ ID NO: 4). Kind of experiment: ELISA on cynoCD38::Histag [Cont.]. The source holds these as a separate data set.
The target of experiment [20] is T4, hCD38-his (SEQ ID NO: 2). Kind of experiment: ELISA on hCD38::Histag. This is another data set of the same source.

The term EC50 denotes the midpoint of the concentration-response curve. Usually koff stands for the rate constant with which the complex falls apart. Usually EC50 (read off the curve) stands for the midpoint of the concentration-response curve.

“And” between values parts separate entries of the source, which are not always exact repeats. Equal entries are not always repeated.

B1: CD38VH1×CD28cvn×CD3low IgG4 (other)
VH 1: QVQLVQSGAEVVKPGASVKVSCKASGYTFTSYAMHWVKEAPGQRLEWIGYIYPGQGGTNYNQKFQGRATLTADTSASTAYMELSSLRSEDTAVYFCARTGGLRRAYFTYWGQGTLVTVSS
VL 1: DIVLTQSPATLSLSPGERATISCRASQSVSSYGQGFMHWYQQKPGQPPRLLIYGASSRATGIPARFSGSGSGTDFTLTISPLEPEDFAVYYCQQNKEDPWTFGGGTKLEIK
VH 2: QVQLQESGPGLVKPSQTLSLTCTVSGFSLSDYGVHWVRQPPGKGLEWLGVIWAGGGTNYNPSLKSRKTISKDTSKNQVSLKLSSVTAADTAVYYCARDKGYSYYYSMDYWGQGTTVTVSS
VL 2: DIVLTQSPASLAVSPGQRATITCRASESVEYYVTSLMQWYQQKPGQPPKLLIFAASNVESGVPARFSGSGSGTDFTLTINPVEANDVANYYCQQSRKVPYTFGQGTKLEIK
VH 3: QVQLVESGGGVVQPGRSLRLSCAASGFTFTKAWMHWVRQAPGKGLEWVAQIKDKSNSYATYYADSVKGRFTISRDNSKNTLYLQMNSLRAEDTAVYYCRGVYYALSPFDYWGQGTLVTVSS
VL 3: DIVMTQTPLSLSVTPGQPASISCKSSQSLVHNNGNTYLSWYLQKPGQSPQLLIYKVSNRFSGVPDRFSGSGSGTDFTLKISRVEAEDVGVYYCGQGTQYPFTFGGGTKVEIK
notes: also called CD38VH1×CD28evn×CD3low IgG4
The molecule B1 gave an EC50 in experiment [1] of 491 pM. Besides, the results for the Kd in experiment [2], in [3] and in experiment [4] were 6000 pM, 34000 pM and 6000 pM, respectively.

B2: mAb3 (antibody, human IgG1, kappa, V domains shown)
VH: QVQLVQSGAEVVKPGASVKVSCKASGYTFTSFNMHWVKEAPGQRLEWIGYIYPGNGGTNYNQKFQGRATLTADTSASTAYMELSSLRSEDTAVYFCARTGGLRRAYFTYWGQGTLVTVSS
VL: DIVLTQSPATLSLSPGERATISCRASESVDSYGNGFMHWYQQKPGQPPRLLIYLASSRATGIPARFSGSGSGTDFTLTISPLEPEDFAVYYCQQNKEDPWTFGGGTKLEIKR
notes: also called antiCD38_C2-CD38-1_VH3-VL3
As for B2, the EC50 in experiment [5] is 0.78 nM and 0.117 µg/mL; in [6], 780 pM; in the experiment with hCD38-his (SEQ ID NO: 2) [7] it was 160 pM; in the experiment with cCD38-his (SEQ ID NO: 4) [8] it was 150 pM; in experiment [11], 1310 pM; with cCD38-his (SEQ ID NO: 4) [14] it was 150 pM. Also, the EC50 in the experiment with hCD38-his (SEQ ID NO: 2) [15] was found to be 160 pM; in experiment [16] it was 1310 pM. Moreover, the Kd in the experiment with hCD38-his (SEQ ID NO: 2) [9] is 483 pM; in the experiment with cCD38-his (SEQ ID NO: 4) [10], 710 pM; in experiment [12] it was 1310 pM; in [13], 780 pM. The koff was determined as 0.000283 s⁻¹ with hCD38-his (SEQ ID NO: 2) [9] and 0.000129 s⁻¹ with cCD38-his (SEQ ID NO: 4) [10].

B3: CD38VH1×CD28sup×CD3low IgG4 (other)
VH 1: QVQLVQSGAEVVKPGASVKVSCKASGYTFTSYAMHWVKEAPGQRLEWIGYIYPGQGGTNYNQKFQGRATLTADTSASTAYMELSSLRSEDTAVYFCARTGGLRRAYFTYWGQGTLVTVSS
VL 1: DIVLTQSPATLSLSPGERATISCRASQSVSSYGQGFMHWYQQKPGQPPRLLIYGASSRATGIPARFSGSGSGTDFTLTISPLEPEDFAVYYCQQNKEDPWTFGGGTKLEIK
VH 2: QVQLVQSGAEVVKPGASVKVSCKASGYTFTSYYIHWVRQAPGQGLEWIGSIYPGNVNTNYAQKFQGRATLTVDTSISTAYMELSRLRSDDTAVYYCTRSHYGLDWNFDVWGKGTTVTVSS
VL 2: DIQMTQSPSSLSASVGDRVTITCQASQNIYVWLNWYQQKPGKAPKLLIYKASNLHTGVPSRFSGSGSGTDFTLTISSLQPEDIATYYCQQGQTYPYTFGQGTKLEIK
VH 3: QVQLVESGGGVVQPGRSLRLSCAASGFTFTKAWMHWVRQAPGKGLEWVAQIKDKSNSYATYYADSVKGRFTISRDNSKNTLYLQMNSLRAEDTAVYYCRGVYYALSPFDYWGQGTLVTVSS
VL 3: DIVMTQTPLSLSVTPGQPASISCKSSQSLVHNNGNTYLSWYLQKPGQSPQLLIYKVSNRFSGVPDRFSGSGSGTDFTLKISRVEAEDVGVYYCGQGTQYPFTFGGGTKVEIK
For the molecule B3, a half-maximal effect in experiment [17] (EC50) was put at 1040 pM. In addition, the “EC50 (read off the curve)” value in [18] is about 6000 pM. In addition, the results for the Kd in experiment [2], in [3] and in experiment [4] were 6000 pM, 4000 pM and 6000 pM, respectively.

B4: mAb5 (antibody, human IgG1, kappa, V domains shown)
VH: QVQLVQSGAEVVKPGASVKMSCKASGYTFTSFNMHWVKEAPGQRLEWIGYIYPGNGGTNYNQKFQGRATLTADTSASTAYMEISSLRSEDTAVYFCARTGGLRRAYFTYWGQGTLVTVSS
VL: DIVLTQSPATLSLSPGERATISCRASESVDSYGNGFMHWYQQKPGQPPRLLIYLASSRATGIPARFSGSGSGTDFTLTISPLEPEDFAVYYCQQNKEDPWTFGGGTKLEIKR
notes: also called antiCD38_C2-CD38-1_VH6-VL3
Take B4: the EC50 in experiment [5] is 0.68 nM and 0.102 µg/mL; in experiment [6] it was 680 pM; with hCD38-his (SEQ ID NO: 2) [7], 140 pM; with cCD38-his (SEQ ID NO: 4) [19], 140 pM; with hCD38-his (SEQ ID NO: 2) [20], 140 pM; in experiment [11] it was 1.06 nM and 0.16 µg/mL. Besides, the EC50 was 140 pM with cCD38-his (SEQ ID NO: 4) [14] and 1060 pM in [16]. In addition, the Kd in the experiment with hCD38-his (SEQ ID NO: 2) [9] is 312 pM; with cCD38-his (SEQ ID NO: 4) [10], 563 pM; in experiment [12], 1070 pM; in [13], 680 pM. Moreover, the koff with hCD38-his (SEQ ID NO: 2) [9] worked out at 0.000333 s⁻¹; with cCD38-his (SEQ ID NO: 4) [10], 0.000125 s⁻¹.
